What was measured:
[1] = target: T1, EphA3/IL-26 interaction (Homo sapiens, UniProt Q9NPH9); test: Immunofluorescence of rhIL-26-Alexa 488 and cell surface EphA3 on E0771 cells; assay type: cell-based, mouse; conditions: E0771, antibodies 10 μg/ml, FIGS. 19 and 20
T1 construct: purchased R&D Systems; host or cells: IL-26 was purchased; EphA3 is endogenous on E0771 cells
T1 sequence (Q9NPH9 22-171): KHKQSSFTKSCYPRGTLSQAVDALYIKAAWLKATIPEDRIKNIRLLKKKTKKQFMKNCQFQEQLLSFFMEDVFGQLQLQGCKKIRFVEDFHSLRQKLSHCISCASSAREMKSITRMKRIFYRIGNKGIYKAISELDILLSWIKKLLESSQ
Procedure: (§1) E0771 and HCC70 cells (1×10^5) were cultured for 24 hours in RPMI1640 medium with 10% FCS on Lab-Tek chamber slides (Thermo Fisher Scientific). The cultured cells were stimulated with Alexa Fluor 488 labeled IL-26 (30 ng/ml) in the presence or absence of recombinant human and mouse EphA3-Ig for 1 hour. HCC70 cells were stimulated with IL-26 (30 ng/ml) in the presence or absence of gefitinib (40 μM), a signal inhibitor, and a neutralizing antibody for 24 hours. Subcutaneous tumor samples obtained from mice were fixed in 4% paraformaldehyde (Thermo Fisher Scientific) and embedded in OCT compound (Tissue-Tek (registered trademark), Sakura Finetek, Japan). Cells and slides were immunostained with each antibody and observed using a Zeiss inverted microscope and Axiovision 2.0 program (Carl Zeiss, Germany). The fluorescence intensity was quantified with Image-J software (NIH). The images were captured using a 100×400× objective.

[2] = test system: HCC70 cells; test: MTT assay / cell proliferation (confluence) assay, HCC70; assay type: cell-based, human
Procedure: (§2) Human and mouse breast cancer cells (1×10^4) were cultured in 10% FCS containing RPMI1640 medium on a 96-well flat bottom plate (Corning, Tewksbury, MA) at 37° C. for 24 hours, and then stimulated with IL-26 for 48 hours in the presence or absence of EGFR-TKI (gefitinib or erlotinib) at various concentrations, a signal inhibitor, and a neutralizing antibody. HUVECs were seeded in a 96-well flat bottom plate at 5×10^3 cells/well in a 2% FBS-containing EGM medium in which growth factors were reduced by half, and cultured at 37° C. for 12 hours. Thereafter, the medium was aspirated, and a recombinant human IL-26 dimer was adjusted to a final concentration of 10 ng/mL in a 2% FBS-containing EGM medium containing no growth factors, and added to the cells. The stimulation was started in the presence or absence of control human IgG and anti-human IL-26 antibodies, and the cells were cultured for 48 hours. Thereafter, a concentration of 20 μl or 1/10 of a 5 mg/ml MTT solution (Tetrazolium monosodium salt, WST-8) was added to each well, and the plate was allowed to stand for 1 hour. The absorbance at 450 nm/595 nm was measured using Microplate Reader (Bio-Rad, Hercules, CA) and data was analyzed with Microplate Manager 6 software (Bio-Rad).
Human and mouse breast cancer cells (1×10^4) were cultured in RPMI1640 medium containing 10% FCS for 24 hours at 37° C. on a 96-well flat bottom plate (Corning), and then stimulated with IL-26 (30 ng/ml) in the presence or absence of various concentrations of gefitinib and a neutralizing antibody. Cell proliferation was measured as cell confluence using IncuCyte ZOOM (Essen Bioscience, Ann Arbor, MI).

[3] = target: T2, interaction between IL-26 and EphA3 (Homo sapiens, UniProt Q9NPH9); test: Immunofluorescence of rhIL-26-Alexa488 and cell surface EphA3 on HCC70 cells; assay type: cell-based; conditions: HCC70, rhIL-26-Alexa488 30 ng/ml, 50 μg/ml each, 1 hour, FIG. 21
T2 construct: purchased R&D Systems; host or cells: IL-26 was purchased; EphA3 is endogenous on HCC70 cells
T2 sequence (Q9NPH9 22-171): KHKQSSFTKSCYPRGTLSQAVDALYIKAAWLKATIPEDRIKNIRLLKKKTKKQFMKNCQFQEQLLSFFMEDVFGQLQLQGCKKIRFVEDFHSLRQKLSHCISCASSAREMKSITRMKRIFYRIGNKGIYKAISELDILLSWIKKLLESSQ
Procedure: as §1

[4] = target: T3, IL-26 (Homo sapiens, UniProt Q9NPH9); test: ICAM-1 expression analysis of COLO205 (neutralizing activity of IL-26); assay type: cell-based; parameters: host or cells: added exogenously to COLO205 cells; conditions: for inhibition of IL-26-enhanced expression of ICAM-1: COLO205, recombinant human IL-26 monomer 20 ng/mL, 24 hours, flow cytometry (MFI); for inhibitory effect on IL-26 compared with m69-10 (ICAM-1 expression): COLO205, antibody doses of 2 μg/mL and 5 μg/mL
T3 sequence (Q9NPH9 22-171): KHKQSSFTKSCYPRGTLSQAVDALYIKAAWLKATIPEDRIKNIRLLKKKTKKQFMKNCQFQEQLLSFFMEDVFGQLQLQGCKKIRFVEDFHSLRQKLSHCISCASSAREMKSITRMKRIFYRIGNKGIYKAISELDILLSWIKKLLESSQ
Procedure: COLO205 was seeded at 5×10^4 cells/well in a 96-well flat bottom plate, and stimulated with recombinant human IL-26 monomer (20 ng/mL) in the presence or absence of control human IgG or anti-human IL-26 antibody. After 24 hours of culture, the cells were collected and washed with ice-cold PBS (FCM buffer) containing 1% FBS and 0.1% sodium azide. Thereafter, a solution prepared by diluting a PE-labeled mouse anti-human ICAM-1 monoclonal antibody (clone 15.2, catalog number 50-0549-T100) of Bay bioscience (Kobe, Japan) or a PE-labeled mouse Igl,k isotype control monoclonal antibody (clone MOPC-21, catalogue number 400114) of BioLegend with FCM buffer to 5 μg/mL, was added at 50 μL/sample, and the mixture was allowed to stand at 4° C. for 25 minutes. Thereafter, the cells were washed with ice-cold FCM buffer, then measured with FACSCalibur, and the obtained data was analyzed with FlowJo.

[5] = target: T3, IL-26; test: ELISA of antigen binding to human IL-26; parameters: purchased R&D Systems 1375-IL/CF; conditions: for EC50 values (binding to human IL-26, ELISA): plates coated with 0.5 μg/ml human IL-26 monomer, calculated using GraphPadPrism
Procedure: The antigen binding of purified Ch69-10-IgG1, Hu69-10A-IgG1, and Hu69-10B-IgG1 was analyzed by ELISA. ELISA plates were coated overnight at 4° C. with the addition of 0.5 μg/ml human IL-26 (recombinant human IL-26/AK155 monomer, Cat #1375-IL/CF, R&D Systems, Minneapolis, MN) at 100 μl/well in 0.2 M sodium carbonate buffer (pH 9.4). Wells were washed with the wash buffer and blocked with the ELISA buffer. Subsequently, 100 μl/well of test antibody (mouse 69-10, Ch69-10-IgG1, Hu69-10A-IgG1, or Hu69-10B-IgG1) serially diluted 2-fold in RPMI medium starting at 5 μg/ml was added to measure a binding with IL-26. After incubation at room temperature for 1 hour and washing the plates with a wash buffer, a 1/2,000-diluted HRP-conjugated goat anti-human kappa chain polyclonal antibody (Bethyl Laboratories) (for Ch69-10-IgG1, Hu69-10A-IgG1 and Hu69-10B-IgG1) or a 1/2,000-diluted HRP-labeled goat anti-mouse kappa chain polyclonal antibody (Bethyl Laboratories) (for mouse 69-10) in ELISA buffer was added at 100 μl/well to detect bound antibodies. After incubation at room temperature for 30 min and washing with the wash buffer, 100 μl/well of ABTS substrate (Sigma Aldrich) was added to start color development and 100 μl/well of 2% oxalic acid was added to stop the color development. The absorbance was measured at 405 nm.

[6] = target: T3, IL-26; test: MTT assay of HUVECs stimulated with IL-26 (neutralizing activity of IL-26); assay type: cell-based; parameters: purchased R&D Systems; host or cells: added exogenously to HUVECs; conditions: antibody dose of 3 μg/mL
Procedure: as §2

[7] = Heterogeneous chronic GVHD model (NOG mice transplanted with human umbilical cord blood mononuclear cells); assay type: in vivo, mouse
Procedure: On day −1, NOG mice were irradiated with a sublethal dose (100 cGy). On day 0, 5×10^6 human umbilical cord blood mononuclear cells were transplanted from the tail vein of NOG mice. Survival of the mice was assessed daily and body weight was measured twice a week. In an antibody treatment experiment, the control human IgG or anti-human IL-26 monoclonal antibody (the mouse antibody m69-10 and the humanized antibody h69-10A) was administered from day +28 of transplantation when clinical signs/symptoms of mild GVHD began to appear. The antibody solution was adjusted to a concentration of 1 mg/mL with sterile PBS, and 200 μL (200 μg) of the antibody solution per mouse was intraperitoneally injected twice a week. On day +56 after transplantation, the mice were sacrificed, and the skin, lung, liver, and large intestine were collected.
NOG mice were dissected, and then the skin, lung, liver, and large intestine on the back were excised, fixed in 10% formalin solution (Wako) at room temperature, and embedded in paraffin. Thereafter, a section having a thickness of 5 μm was prepared and placed on a glass slide, and stained with hematoxylin and eosin (H&E). In addition, in order to confirm the proliferation of collagen fibers, Azan-Mallory staining was performed. Images of the optical microscope were taken with an Olympus BX41 microscope (OLYMPUS, Tokyo, Japan) connected with an Olympus digital camera DP25, and CellSens software was used.

[8] = 200 μg per mouse i.p. twice a week from day 28, data not shown

| Molecule | inhibition of colocalization of IL-26 with EphA3 (EphA3/IL-26 interaction) [1] | blocking of inhibitory effect of IL-26 on suppression of cell proliferation by gefitinib ([2]; HCC70, IL-26 30 ng/ml, gefitinib 40 μM, 48 hours, Abs or rhEphA3-Ig 50 μg/ml each, MTT, FIG. 22) | inhibition of interaction between IL-26 and EphA3 [3] | inhibition of IL-26-enhanced expression of ICAM-1 [4] | inhibitory effect on IL-26 compared with m69-10 (ICAM-1 expression) [4] | EC50 values (binding to human IL-26, ELISA) [5] [ng/mL] | binding to IL-26 (absorption value) ([5]; recombinant human IL-26 immobilized on a plate, FIG. 56) | inhibitory effect on IL-26 compared with m69-10 (HUVEC proliferation) [6] | reversal of inhibitory effect of IL-26 on gefitinib-induced suppression of cell proliferation ([2]; HCC70, IL-26 30 ng/ml, gefitinib 40 μM, 48 hours, MTT, FIG. 59) | inhibitory effect on IL-26 compared with m69-10 (HCC70 proliferation) ([2]; antibody doses of 5 μg/mL and 20 μg/mL) | body weight loss [7, 8] | number of survival days [7, 8] | therapeutic effect compared with m69-10 ([7]; FIG. 60) |
| --- | --- | --- | --- | --- | --- | --- | --- | --- | --- | --- | --- | --- | --- |
| rhEphA3-Ig: recombinant human EphA3 Fc chimeric protein purchased from R&D Systems (protein, left off: a dimerising Fc or GST, recombinant human EphA3 Fc chimeric protein purchased from R&D Systems) ELIPQPSNEVNLLDSKTIQGELGWISYPSHGWEEISGVDEHYTPIRTYQVCNVMDHSQNNWLRTNWVPRNSAQKIYVELKFTLRDCNSIPLVLGTCKETFNLYYMESDDDHGVKFREHQFTKIDTIAADESFTQMDLGDRILKLNTEIREVGPVNKKGFYLAFQDVGACVALVSVRVYFKKCPFTVKNLAMFPDTVPMDSQSLVEVRGSCVNNSKEEDPPRMYCSTEGEWLVPIGKCSCNAGYEERGFMCQACRPGFYKALDGNMKCAKCPPHSSTQEDGSMNCRCENNYFRADKDPPSMACTRPPSSPRNVISNINETSVILDWSWPLDTGGRKDVTFNIICKKCGWNIKQCEPCSPNVRFLPRQFGLTNTTVTVTDLLAHTNYTFEIDAVNGVSELSSPPRQFAAVSITTNQAAPSPVLTIKKDRTSRNSISLSWQEPEHPNGIILDYEVKYYEKQEQETSYTILRARGTNVTISSLKPDTIYVFQIRARTAAGYGTNSRKFEFETSPDSFSISGESSQ | inhibited EphA3/IL-26 interaction | potently blocked the inhibitory effect of IL-26 on suppression of cell proliferation by gefitinib | clearly inhibited the interaction between IL-26 and EphA3 |  |  |  |  |  |  |  |  |  |  |
| Hu69-10A-IgG1: humanized 69-10 IgG1/kappa antibody expressed by pHu69-10A (Hu69-10VH1 and Hu69-10VL1) (antibody, V domains shown) VH: QVTLKESGPALVKPTQTLTLTCTFSGFSLSTSGMGVGWIRQPPGKALEWLAHIWWDDDKYYNPSLKSQLTISKDTSKNQVVLTMTNMDPVDTATYYCVRGGITATHYYAMDYWGQGTTVTVSS VL: DIQMTQSPSSLSASVGDRVTITCLASQTIGTWLSWYQQKPGKAPKLLIYAATSLADGVPSRFSGSGSGTKFTFTISSLQPEDIATYYCQQLYSSPWTFGGGTKVEIK |  |  |  | partially inhibited | significantly higher inhibitory effect on IL-26 than the original mouse antibody m69-10 | 304 | stronger binding to IL-26 than an original mouse antibody m69-10 | significantly higher inhibitory effect on IL-26 than the original mouse antibody m69-10 | reversed the inhibitory effect of IL-26 on gefitinib-induced suppression of cell proliferation in an antibody dose-dependent manner | significantly higher inhibitory effect on IL-26 than the original mouse antibody m69-10 | clearly reduced | significantly prolonged | higher therapeutic effect than the original mouse antibody m69-10 |
| Hu69-10B-IgG1: humanized 69-10 IgG1/kappa antibody expressed by pHu69-10B (Hu69-10VH1 and Hu69-10VL2) (antibody, V domains shown) VH: QVTLKESGPALVKPTQTLTLTCTFSGFSLSTSGMGVGWIRQPPGKALEWLAHIWWDDDKYYNPSLKSQLTISKDTSKNQVVLTMTNMDPVDTATYYCVRGGITATHYYAMDYWGQGTTVTVSS VL: DIQMTQSPSSLSASVGDRVTITCLASQTIGTWLSWYQQKPGKAPKLLIYAATSLADGVPSRFSGSGSGTDFTFTISSLQPEDIATYYCQQLYSSPWTFGGGTKVEIK |  |  |  | partially inhibited | significantly higher inhibitory effect on IL-26 than the original mouse antibody m69-10 | 396 |  | significantly higher inhibitory effect on IL-26 than the original mouse antibody m69-10 |  |  |  |  |  |

Reference: patent publication US20230398116A1, “Agent for reversing resistance to anticancer drugs” (Y'S AC CO., LTD., priority 2020, published 2023)
